Literature values as cited in article PMC10560217.
Where two headings read alike, the source gives them in different places.

How the values were obtained:
[1] = target: dmIR (Drosophila melanogaster) (UniProt P09208)
[2] = target: hIR ECD (Homo sapiens) (UniProt P06213)
[3] = target: dmIR (Drosophila melanogaster) (UniProt P09208); remark: listed apart in the source
[4] = target: dmIR (Drosophila melanogaster) (UniProt P09208); remark: listed apart in the source

dmIR (Drosophila melanogaster), sequence (P09208 44-1310): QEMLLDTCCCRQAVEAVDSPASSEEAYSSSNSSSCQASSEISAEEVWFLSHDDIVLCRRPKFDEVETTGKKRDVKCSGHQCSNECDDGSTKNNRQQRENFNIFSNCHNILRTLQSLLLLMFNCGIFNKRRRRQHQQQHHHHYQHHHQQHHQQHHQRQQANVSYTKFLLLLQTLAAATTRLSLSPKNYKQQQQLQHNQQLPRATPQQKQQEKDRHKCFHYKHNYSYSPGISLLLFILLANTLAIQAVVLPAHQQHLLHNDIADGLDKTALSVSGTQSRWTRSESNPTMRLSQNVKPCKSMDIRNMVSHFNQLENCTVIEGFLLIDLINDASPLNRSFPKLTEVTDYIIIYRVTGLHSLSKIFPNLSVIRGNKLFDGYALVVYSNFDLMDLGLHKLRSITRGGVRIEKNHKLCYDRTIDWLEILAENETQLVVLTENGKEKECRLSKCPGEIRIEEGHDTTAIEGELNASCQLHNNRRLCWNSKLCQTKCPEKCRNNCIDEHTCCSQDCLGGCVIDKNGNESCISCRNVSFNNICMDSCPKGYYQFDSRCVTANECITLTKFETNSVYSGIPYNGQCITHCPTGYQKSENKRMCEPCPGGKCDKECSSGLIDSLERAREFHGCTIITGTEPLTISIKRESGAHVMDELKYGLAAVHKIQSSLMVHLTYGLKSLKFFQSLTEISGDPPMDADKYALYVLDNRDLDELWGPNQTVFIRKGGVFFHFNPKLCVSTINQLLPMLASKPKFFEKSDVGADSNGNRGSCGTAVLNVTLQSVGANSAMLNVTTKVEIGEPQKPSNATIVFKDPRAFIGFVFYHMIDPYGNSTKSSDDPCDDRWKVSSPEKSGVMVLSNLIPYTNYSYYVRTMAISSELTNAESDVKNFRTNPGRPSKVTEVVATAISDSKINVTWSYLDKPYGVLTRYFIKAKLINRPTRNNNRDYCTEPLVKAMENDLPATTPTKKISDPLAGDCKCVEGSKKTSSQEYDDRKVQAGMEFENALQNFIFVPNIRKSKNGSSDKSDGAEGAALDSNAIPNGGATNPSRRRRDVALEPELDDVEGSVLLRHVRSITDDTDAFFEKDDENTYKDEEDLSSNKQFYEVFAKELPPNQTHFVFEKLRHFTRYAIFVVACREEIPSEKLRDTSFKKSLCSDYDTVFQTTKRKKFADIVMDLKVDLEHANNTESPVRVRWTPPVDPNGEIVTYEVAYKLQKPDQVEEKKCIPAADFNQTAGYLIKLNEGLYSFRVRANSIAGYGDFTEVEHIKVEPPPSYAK
DILP5 C4, sequence (Q7KUD5 23-50): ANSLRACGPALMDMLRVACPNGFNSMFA
DILP5 C4, sequence (Q7KUD5 87-108): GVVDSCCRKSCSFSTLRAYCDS
DILP5 DB, sequence (Q7KUD5 84-108): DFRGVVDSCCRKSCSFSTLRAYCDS
insulin, sequence (P01308 90-110): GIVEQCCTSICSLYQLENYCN

hIGF-1 (from UniProt P05019)
Kd [1]: 5910 nM

insulin (from UniProt P01308)
Kd [2]: 30 nM

DILP5 DB (from UniProt Q7KUD5)
Kd [3]: 0.35 nM

DILP5 C4 (from UniProt Q7KUD5)
Kd [4]: 0.76 nM
